PMC5619814

Key:
[1] = target: soluble human neonatal Fc receptor (hFcRn) (human) (UniProt P55899); test: SPR; ProteOn XPR36, GLC chip; rbFcRn (about 1200 RU) or hFcRn (about 1600 RU) immobilised by amine coupling; IgG injected at 8.34-133 nM, 100 μl/min, PBS-T pH 6.0, 25°C; heterogeneous ligand model (two classes of non-interacting sites)
[2] = target: soluble rabbit neonatal Fc receptor (rbFcRn), heterodimer of truncated rbFcRn α-chain and rabbit β2-microglobulin (rabbit); test: as above
[3] = target: human IgG1 (Omalizumab) (human); test: SPR; ProteOn XPR36, GLC chip; rbIgG (about 1900 RU) or hIgG1 (about 2100 RU) immobilised by amine coupling; rbFcRn or hFcRn injected at 37.5-600 nM, 100 μl/min, PBS-T pH 6.0, 25°C; Langmuir 1:1 model
[4] = target: soluble rabbit neonatal Fc receptor (rbFcRn), heterodimer of truncated rbFcRn α-chain and rabbit β2-microglobulin (rabbit)

Row | Substance | KD1 (high affinity class of sites, heterogeneous ligand model) [1] | KD2 (low affinity class of sites, heterogeneous ligand model) [1] | KD1 (high affinity class of sites, heterogeneous ligand model) [2] | KD2 (low affinity class of sites, heterogeneous ligand model) [2] | Kd [3] | koff [3] | kon [3] | FcRn-mediated recycling assay in rabbit peritoneal macrophages: relative fluorescence intensity of Alexa 488-hIgG1 left in the cells after 20 min pulse at pH 6.0 and 30 min chase at pH 7.4 [4]
1 | human IgG2 (Abcam) (antibody) | 5.43 nM | 34.7 nM | 7.46 nM | 106 nM | – | – | – | –
2 | soluble rabbit neonatal Fc receptor (rbFcRn), heterodimer of truncated rbFcRn α-chain and rabbit β2-microglobulin (complex) | – | – | – | – | 1.19 nM | 0.00039 s⁻¹ | 327000 M⁻¹ s⁻¹ | –
3 | human IgG1 (Omalizumab) (antibody) | 9.99 nM | 57.2 nM | 12.9 nM | 71.9 nM | – | – | – | 60%
4 | soluble human neonatal Fc receptor (hFcRn) (from UniProt P55899 24-297; P61769 21-119) (complex) | – | – | – | – | 4.3 nM | 0.000592 s⁻¹ | 138000 M⁻¹ s⁻¹ | –

Next, values leading:

Row | KD1 (high affinity class of sites, heterogeneous ligand model) [1] | KD2 (low affinity class of sites, heterogeneous ligand model) [1] | KD1 (high affinity class of sites, heterogeneous ligand model) [2] | KD2 (low affinity class of sites, heterogeneous ligand model) [2] | Kd [3] | koff [3] | kon [3] | FcRn-mediated recycling assay in rabbit peritoneal macrophages: relative fluorescence intensity of Alexa 488-hIgG1 left in the cells after 20 min pulse at pH 6.0 and 30 min chase at pH 7.4 [4] | Substance
5 | 2.36 nM | 20.2 nM | 3.86 nM | 53.5 nM | – | – | – | – | human IgG4 (Abcam) (antibody)
6 | 6.06 nM | 17.4 nM | 2.57 nM | 59.2 nM | – | – | – | – | human IgG3 (Abcam) (antibody)
